Data as given in paper doi:10.1101/2020.10.08.331538 (bioRxiv, 2020).
Residue numbers refer to the chain shown, from its start. In names and notes the source's numbering stands. Several values for one entry are separate records, joined by “and”; a condition that tells them apart may be missing. Equal values may be shown once.

Tests used:
[1] = molecular target: Pv-M17Δ53-78, Pv-M17 N-terminal loop deletion mutant (Plasmodium vivax) (UniProt A5K3U9); assay: crystal structure
[2] = molecular target: the molecule itself; assay: AUC
[3] = molecular target: the molecule itself; assay: AUC; remark: listed apart in the source
[4] = molecular target: the molecule itself; assay: SEC-MALS
[5] = molecular target: the molecule itself; assay: AUC; remark: listed apart in the source
[6] = molecular target: the molecule itself; assay: SEC

Molecule: Pv-M17Δ53-78, Pv-M17 N-terminal loop deletion mutant (from UniProt A5K3U9 73-621) (enzyme)
- stoichiometry N [1]: 6

B1: PfA-M17, M17 aminopeptidase from Plasmodium falciparum, wild type (enzyme)
chain: MASEVPQVVSLDPTSIPIEYNTPIHDIKVQVYDIKGGCNVEEGLTIFLVNNPGKENGPVKISSKVNDKNVSEFLKDENMEKFNVKLGTSKHFYMFNDNKNSVAVGYVGCGSVADLSEADMKRVVLSLVTMLHDNKLSKLTVVFEINVDKNLFRFFLETLFYEYMTDERFKSTDKNVNMEYIKHLGVYINNADTYKEEVEKARVYYFGTYYASQLIAAPSNYCNPVSLSNAAVELAQKLNLEYKILGVKELEELKMGAYLSVGKGSMYPNKFIHLTYKSKGDVKKKIALVGKGITFDSGGYNLKAAPGSMIDLMKFDMSGCAAVLGCAYCVGTLKPENVEIHFLSAVCENMVSKNSYRPGDIITASNGKTIEVGNTDAEGRLTLADALVYAEKLGVDYIVDIATLTGAMLYSLGTSYAGVFGNNEELINKILNSSKTSNEPVWWLPIINEYRATLNSKYADINNISSSVKASSIVASLFLKEFVQNTAWAHIDIAGVSWNFKARKPKGFGVRLLTEFVLNDAL
- stoichiometry N [2]: 2
- stoichiometry N [3]: 6
- stoichiometry N [4]: ~6

B2: Pv-M17, M17 aminopeptidase from Plasmodium vivax, wild type (residues 73 – 621) (enzyme)
chain: MATTVPQVVSLDPTTIPIDYHTPIDDLSIEVKDISAEACPADEGLIVFLLNSAPKHSSSGGSGGNGGSAGSSGNGEGGAQIKINSSVKDNTINEFLKEGNMENFTGKLGTSKSFYIANDQKKYVSLAYVGCGPANEETELEIRKVAYALVTLLHDSKHKKVSIIFEIKIEEALFRFFLEHLFYEYVTDERFKSADKSTETDFIKNLSLHIANADAYKGQIDKARVYFYGTYYAAQLIAAPSNYCNPVSLSNAAVELAQKVNLECKILDVKELEELKMGAYLSVGKGSMYPNKFIHLTYKGAQTGASQNEKKKIALIGKGITFDSGGYNLKAAPGSMIDLMKFDMSGCAAVLGCAYCIGTIKPDNVEVHFLSAVCENMVSKNSYRPGDIITASNGKTIEVGNTDAEGRLTLADALVYAEKLGVDYIVDIATLTGAMLYSLGTSYAGVFGNNDQLINKILSSSKTSNEPVWWLPIINEYRSSLNSKYADLNNISSSVKASSVVASLFLKEFIENTPWAHIDIAGVSWNFKARKPKGFGVRLLTEFVLNDAV
- stoichiometry N [2]: 2
- stoichiometry N [5]: 6
- stoichiometry N [4]: ~6 and ~2
- stoichiometry N [6]: 4

B3: PfA-M17 (D379A + E461L) (enzyme)
chain: B1 chain with D296A, E378L
- binding result [2]: binds
